Experimental data from PMC3046049 (Science (New York, N.Y.), 2010).

T1: PLC-β3 truncated at residue 886 (UniProt Q01970 1-886)
T1 sequence (looked up): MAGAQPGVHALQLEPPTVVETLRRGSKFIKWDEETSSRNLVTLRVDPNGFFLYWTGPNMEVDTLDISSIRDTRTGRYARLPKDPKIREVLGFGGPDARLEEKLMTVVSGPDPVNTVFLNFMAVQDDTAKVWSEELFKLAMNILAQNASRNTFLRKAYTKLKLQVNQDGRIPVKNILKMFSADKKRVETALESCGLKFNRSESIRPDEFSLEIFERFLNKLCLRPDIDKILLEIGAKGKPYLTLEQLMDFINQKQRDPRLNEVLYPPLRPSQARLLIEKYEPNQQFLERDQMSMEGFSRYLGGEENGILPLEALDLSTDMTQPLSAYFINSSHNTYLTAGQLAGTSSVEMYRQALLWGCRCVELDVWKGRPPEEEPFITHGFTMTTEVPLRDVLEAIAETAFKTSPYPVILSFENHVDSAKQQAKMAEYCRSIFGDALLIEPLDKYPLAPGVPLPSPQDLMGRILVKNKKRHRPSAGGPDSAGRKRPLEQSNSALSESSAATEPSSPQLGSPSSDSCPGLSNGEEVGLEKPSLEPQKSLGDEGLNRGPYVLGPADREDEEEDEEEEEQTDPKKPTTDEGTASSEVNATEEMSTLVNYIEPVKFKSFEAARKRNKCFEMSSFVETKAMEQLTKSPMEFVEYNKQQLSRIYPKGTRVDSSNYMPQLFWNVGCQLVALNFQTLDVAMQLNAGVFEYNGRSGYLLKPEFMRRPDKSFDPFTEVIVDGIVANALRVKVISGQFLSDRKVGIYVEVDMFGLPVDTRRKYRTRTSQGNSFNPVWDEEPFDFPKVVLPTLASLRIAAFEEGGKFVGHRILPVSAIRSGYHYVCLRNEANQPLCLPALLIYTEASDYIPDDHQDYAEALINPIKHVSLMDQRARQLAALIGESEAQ

B1: Gαq (natural protein)
chain: RRELKLLLLGTGESGKSTFIKQMRIIHGSGYSDEDKRGFTKLVYQNIFTAMQAMIRAMDTLKIPYKYEHNKAHAQLVREVDVEKVSAFENPYVDAIKSLWNDPGIQECYDRRREYQLSDSTKYYLNDLDRVADPSYLPTQQDVLRVRVPTTGIIEYPFDLQSVIFRMVDVGGQRSERRKWIHCFENVTSIMFLVALSEYDQVLVESDNENRMEESKALFRTIITYPWFQNSSVILFLNKKDLLEEKIMYSHLVDYFPEYDGPQRDAQAAREFILKMFVDLNPDSDKIIYSHFTCATDTENIRFVFAAVKDTILQLNLKEYNLV

Experiments:
[1] = target: T1, PLC-β3 truncated at residue 886
[2] = target: B1

Binder | Kd [1] [nM] | fold lower binding affinity than PLC-β3 [2] [fold]
B1 | ~200 | –
PLC-β3(L859A) (enzyme, UniProt Q01970 1-1234, looked up) MAGAQPGVHALQLEPPTVVETLRRGSKFIKWDEETSSRNLVTLRVDPNGFFLYWTGPNMEVDTLDISSIRDTRTGRYARLPKDPKIREVLGFGGPDARLEEKLMTVVSGPDPVNTVFLNFMAVQDDTAKVWSEELFKLAMNILAQNASRNTFLRKAYTKLKLQVNQDGRIPVKNILKMFSADKKRVETALESCGLKFNRSESIRPDEFSLEIFERFLNKLCLRPDIDKILLEIGAKGKPYLTLEQLMDFINQKQRDPRLNEVLYPPLRPSQARLLIEKYEPNQQFLERDQMSMEGFSRYLGGEENGILPLEALDLSTDMTQPLSAYFINSSHNTYLTAGQLAGTSSVEMYRQALLWGCRCVELDVWKGRPPEEEPFITHGFTMTTEVPLRDVLEAIAETAFKTSPYPVILSFENHVDSAKQQAKMAEYCRSIFGDALLIEPLDKYPLAPGVPLPSPQDLMGRILVKNKKRHRPSAGGPDSAGRKRPLEQSNSALSESSAATEPSSPQLGSPSSDSCPGLSNGEEVGLEKPSLEPQKSLGDEGLNRGPYVLGPADREDEEEDEEEEEQTDPKKPTTDEGTASSEVNATEEMSTLVNYIEPVKFKSFEAARKRNKCFEMSSFVETKAMEQLTKSPMEFVEYNKQQLSRIYPKGTRVDSSNYMPQLFWNVGCQLVALNFQTLDVAMQLNAGVFEYNGRSGYLLKPEFMRRPDKSFDPFTEVIVDGIVANALRVKVISGQFLSDRKVGIYVEVDMFGLPVDTRRKYRTRTSQGNSFNPVWDEEPFDFPKVVLPTLASLRIAAFEEGGKFVGHRILPVSAIRSGYHYVCLRNEANQPLCLPALLIYTEASDYIPDDHQDYAEAAINPIKHVSLMDQRARQLAALIGESEAQAGQETCQDTQSQQLGSQPSSNPTPSPLDASPRRPPGPTTSPASTSLSSPGQRDDLIASILSEVAPTPLDELRGHKALVKLRSRQERDLRELRKKHQRKAVTLTRRLLDGLAQAQAEGRCRLRPGALGGAADVEDTKEGEDEAKRYQEFQNRQVQSLLELREAQVDAEAQRRLEHLRQALQRLREVVLDANTTQFKRLKEMNEREKKELQKILDRKRHNSISEAKMRDKHKKEAELTEINRRHITESVNSIRRLEEAQKQRHDRLVAGQQQVLQQLAEEEPKLLAQLAQECQEQRARLPQEIRRSLLGEMPEGLGDGPLVACASNGHAPGSSGHLSGADSESQEENTQL | – | 7
